From patent US20130137628A1

Molecular target: ATP-binding cassette transporter A1 (ABCA1) on RAW 264.7 murine macrophage cells (murine) (UniProt P41233)
Test: cell-based or functional assay

Sequence of UniProt P41233 (P41233 whole entry): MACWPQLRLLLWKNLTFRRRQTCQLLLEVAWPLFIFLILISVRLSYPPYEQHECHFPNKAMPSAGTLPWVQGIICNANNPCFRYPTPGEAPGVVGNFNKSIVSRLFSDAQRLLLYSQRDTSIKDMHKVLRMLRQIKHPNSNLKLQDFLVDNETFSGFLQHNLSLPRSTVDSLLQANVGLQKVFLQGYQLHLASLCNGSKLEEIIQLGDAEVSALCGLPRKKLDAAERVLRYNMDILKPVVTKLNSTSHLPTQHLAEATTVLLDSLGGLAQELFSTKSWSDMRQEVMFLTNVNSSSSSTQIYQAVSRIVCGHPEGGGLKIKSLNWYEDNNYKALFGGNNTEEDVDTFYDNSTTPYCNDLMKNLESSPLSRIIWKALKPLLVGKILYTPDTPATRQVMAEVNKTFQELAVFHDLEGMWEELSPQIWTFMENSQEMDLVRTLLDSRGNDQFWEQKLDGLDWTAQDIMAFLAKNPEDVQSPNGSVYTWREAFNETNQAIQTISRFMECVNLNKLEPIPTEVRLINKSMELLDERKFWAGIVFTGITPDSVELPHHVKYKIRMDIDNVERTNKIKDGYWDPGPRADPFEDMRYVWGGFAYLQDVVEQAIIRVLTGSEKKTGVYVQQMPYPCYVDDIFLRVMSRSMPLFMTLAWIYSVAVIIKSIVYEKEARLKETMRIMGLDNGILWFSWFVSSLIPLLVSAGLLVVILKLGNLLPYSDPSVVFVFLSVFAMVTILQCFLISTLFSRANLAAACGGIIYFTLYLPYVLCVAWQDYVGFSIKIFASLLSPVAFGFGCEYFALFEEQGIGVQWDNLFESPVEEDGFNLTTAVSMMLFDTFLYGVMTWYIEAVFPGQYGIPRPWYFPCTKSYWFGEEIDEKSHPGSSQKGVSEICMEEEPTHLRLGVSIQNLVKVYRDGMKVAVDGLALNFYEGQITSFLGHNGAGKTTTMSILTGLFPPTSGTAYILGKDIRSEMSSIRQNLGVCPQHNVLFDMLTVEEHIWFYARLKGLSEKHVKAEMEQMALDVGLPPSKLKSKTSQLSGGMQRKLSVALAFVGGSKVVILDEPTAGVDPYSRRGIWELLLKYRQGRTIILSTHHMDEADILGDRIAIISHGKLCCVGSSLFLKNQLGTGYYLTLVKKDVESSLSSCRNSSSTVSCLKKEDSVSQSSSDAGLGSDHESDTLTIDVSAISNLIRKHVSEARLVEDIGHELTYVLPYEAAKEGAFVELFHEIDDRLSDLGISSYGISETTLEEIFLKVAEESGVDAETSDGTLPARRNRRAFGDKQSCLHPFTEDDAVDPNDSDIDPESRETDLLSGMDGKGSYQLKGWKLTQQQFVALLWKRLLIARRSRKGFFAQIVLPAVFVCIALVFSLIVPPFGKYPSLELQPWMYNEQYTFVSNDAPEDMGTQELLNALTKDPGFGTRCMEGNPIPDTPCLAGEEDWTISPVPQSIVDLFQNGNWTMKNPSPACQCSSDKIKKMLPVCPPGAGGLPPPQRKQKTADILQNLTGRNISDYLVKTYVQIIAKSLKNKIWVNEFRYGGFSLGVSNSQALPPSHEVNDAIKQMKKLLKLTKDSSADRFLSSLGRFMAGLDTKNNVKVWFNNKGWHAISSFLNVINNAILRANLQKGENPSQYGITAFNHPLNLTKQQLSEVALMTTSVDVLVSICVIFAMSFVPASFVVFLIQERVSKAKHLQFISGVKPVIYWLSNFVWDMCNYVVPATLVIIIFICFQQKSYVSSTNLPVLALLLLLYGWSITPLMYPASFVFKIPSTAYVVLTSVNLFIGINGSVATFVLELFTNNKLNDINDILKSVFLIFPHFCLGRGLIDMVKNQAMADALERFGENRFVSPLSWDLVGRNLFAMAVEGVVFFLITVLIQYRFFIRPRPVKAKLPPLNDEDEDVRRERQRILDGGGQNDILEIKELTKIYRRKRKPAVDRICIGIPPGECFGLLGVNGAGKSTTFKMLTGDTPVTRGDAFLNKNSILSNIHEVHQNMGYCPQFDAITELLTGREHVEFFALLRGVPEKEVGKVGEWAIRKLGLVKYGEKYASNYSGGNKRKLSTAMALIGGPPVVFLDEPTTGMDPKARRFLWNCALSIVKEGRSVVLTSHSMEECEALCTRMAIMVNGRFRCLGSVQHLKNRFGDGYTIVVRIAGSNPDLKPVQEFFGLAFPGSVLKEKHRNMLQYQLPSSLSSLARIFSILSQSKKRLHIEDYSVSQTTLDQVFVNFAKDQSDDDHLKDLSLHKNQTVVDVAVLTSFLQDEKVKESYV

Substance: recombinant wild type ApoA1 after MPO/HOCl-mediated oxidative damage (from UniProt P02647 25-267)
- ABCA-1-dependent cholesterol efflux ability (reduction upon MPO/HOCl-mediated oxidative damage), RAW 264.7 cells, [3H]-cholesterol: 75 to 80%
